Measured values as given in article PMC7117543 (Biochemical and Biophysical Research Communications, 2008).

Target: T1, staphylococcal enterotoxin B (SEB) (Staphylococcus aureus, UniProt P01552 28-266)
T1 sequence: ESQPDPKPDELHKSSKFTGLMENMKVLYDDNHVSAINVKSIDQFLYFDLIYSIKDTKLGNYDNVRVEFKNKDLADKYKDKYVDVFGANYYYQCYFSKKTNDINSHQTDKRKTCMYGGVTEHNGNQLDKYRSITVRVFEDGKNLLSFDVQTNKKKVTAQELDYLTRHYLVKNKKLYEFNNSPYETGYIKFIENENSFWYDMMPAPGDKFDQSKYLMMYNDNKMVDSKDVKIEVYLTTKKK
Assay: SPR

Does QHPQINQTLYRM [phage clone 9 (M13 phage displaying QHPQINQTLYRM)] bind?
Result: binds
